Experiments:
[1] = molecular target: T1, IsaA (immunodominant structure IsaA of Staphylococcus aureus) (Staphylococcus aureus, UniProt P99160 30-233, limits assumed); assay: SPR (BIACORE 2000), UK66-2 captured via anti-Fab antibody, IsaA as analyte, 25 C, 1:1 Langmuir fit
T1 construct: The ELISA text calls it soluble recombinant IsaA; also called IsaA antigen; soluble recombinant IsaA
T1 sequence (looked up): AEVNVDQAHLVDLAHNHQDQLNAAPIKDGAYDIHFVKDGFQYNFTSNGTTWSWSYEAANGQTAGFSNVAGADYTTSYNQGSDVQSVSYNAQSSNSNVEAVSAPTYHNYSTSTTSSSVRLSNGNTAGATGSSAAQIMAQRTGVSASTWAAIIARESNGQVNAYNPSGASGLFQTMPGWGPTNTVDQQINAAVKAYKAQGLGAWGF

[2] = molecular target: T1, IsaA (immunodominant structure IsaA of …); assay: SPR (BIACORE 2000), UK66-2 captured via anti-Fab antibody, IsaA as analyte, 25 C, 1:1 Langmuir fit, two independent measurements

B1: antibody UK66-2 (antibody, V domains shown)
VH: EVQLLESGGGLVQPGGSLRLSCAASGFTFSNYYMSWVRQAPGKGLEWVSDINGNGGSTYYPDTVKGRFTISRDNSKNTLYLQMNSLRAEDTAVYYCVRRGGYYALDYWGQGTTVTVSS
VL: DVVMTQTPLSLSVTPGQPASISCRSSQSLVHINGNTYLHWYLQKPGQSPQLLIYRVSNRFSGVPDRFSGSGSGTDFTLKISRVEAEDVGVYYCSQSTHVPWTFGGGTKLELKR
notes: In the SPR assay it was captured by an anti-Fab antibody; also called anti-IsaA antibody UK66-2
Binder B1 has a koff [1] of 0.0018 s⁻¹, a kon [1] of 370000 M⁻¹ s⁻¹ and a Kd [2] of 4.8 nM.
